± gives the uncertainty stated by the source.
Assay: protein stability index of a GFP-peptide fusion (yeast GPS) (PSI 1-4); higher = more stable; sorted into four equal gates, so the index is relative within each strain
Outline: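 Tiled yeast protein peptides of 17 residues were each joined downstream of GFP, on plasmids that also express Cherry. The pooled library was maintained in yeast, and mid-log cultures in leucine-free medium were sorted into four equal gates on the GFP/Cherry ratio. Plasmids from every gate were amplified by PCR and sequenced on Illumina, with barcodes linking reads to strains. The protein stability index of a peptide is its gate-number-weighted read frequency summed over the gates.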

Row | Sequence | protein stability index (doa10∆) | protein stability index (pdr5∆) | protein stability index (san1∆) | protein stability index (ubr1∆)
1 | KKWPQFYAAVQKNYADP [SIN4] | 1.5 ± 0.07 | 2.09 ± 0.084 | 2.77 ± 0.13 | 2.18 ± 0.075
2 | QNSKEKNGLGLNFSTTA [MED2] | 2.9 ± 0.11 | 3.13 ± 0.064 | 2.94 ± 0.056 | 2.99 ± 0.089
3 | IAGFDLIGCIDEAKDFI [PUP3] | 3.17 ± 0.11 | 3.33 ± 0.13 | 3.08 ± 0.073 | 3.21 ± 0.055
4 | HDSILHSRILPKKALKV [RRP43] | 2.08 ± 0.038 | 2.04 ± 0.041 | 1.68 ± 0.079 | 1.75 ± 0.034
5 | VNECIAQSHQRFNAKVS [CDC53] | 2.15 ± 0.039 | 2.6 ± 0.043 | 2.64 ± 0.054 | 2.3 ± 0.027
6 | GKTNIALLTVLKALSHH [BRR2] | 2.19 ± 0.058 | 1.54 ± 0.05 | 2.14 ± 0.069 | 2 ± 0.057
7 | FYVPQARNVTFDSLRNF [GRR1] | 2.04 ± 0.08 | 2.27 ± 0.075 | 2.52 ± 0.08 | 2.22 ± 0.059
8 | SGTDGSTIGILLLTIQL [SRP72] | 3.09 ± 0.064 | 2.91 ± 0.064 | 3.35 ± 0.054 | 3.15 ± 0.057
9 | AKNRILASKIKQYERLR [RRI1] | 2.48 ± 0.052 | 2.4 ± 0.049 | 2.37 ± 0.051 | 2.58 ± 0.036
10 | SNTEPIPRSNRHGSVVE [MED1] | 2.23 ± 0.17 | 3.22 ± 0.23 | 2.72 ± 0.17 | –
11 | DGLLEYLEDIIGTANYK [SMC4] | 2.38 ± 0.072 | 2.53 ± 0.055 | 2.6 ± 0.078 | 2.36 ± 0.054
12 | AEKLGSKKAEKTGTKPA [RPL4A] | 3.14 ± 0.067 | 3.08 ± 0.07 | 3.13 ± 0.05 | 3.06 ± 0.072
13 | RAINKVLCTRLRLSNFF [SIR2] | 1.72 ± 0.059 | 1.3 ± 0.059 | 1.18 ± 0.12 | 1.08 ± 0.034
14 | TYAAEIAHNISAKNRVV [RPL32] | 2.07 ± 0.043 | 2.27 ± 0.052 | 2.28 ± 0.068 | 2.13 ± 0.039
15 | AAAVSGNNASDEPSRKK [SSN3] | 2.68 ± 0.13 | 3.05 ± 0.11 | 2.78 ± 0.14 | 3.05 ± 0.11
16 | VMWGKVTRTHGNSGVVR [RPL33A] | 2.83 ± 0.071 | 2.94 ± 0.075 | 2.97 ± 0.051 | 2.98 ± 0.07
17 | NESSTFLKLVLSESPVD [SIN4] | 2.1 ± 0.041 | 1.95 ± 0.052 | 2.05 ± 0.073 | 2.02 ± 0.046
18 | NNQQRLLLKKLDNFQKS [SMC3] | 2.55 ± 0.06 | 2.64 ± 0.068 | 2.41 ± 0.054 | 2.45 ± 0.043
19 | DSIDLAPNTLTNILISP [YML103C/NUP188] | 1.58 ± 0.11 | 1.87 ± 0.081 | 1.55 ± 0.15 | 1.56 ± 0.19
20 | SAMPAPYMPYYYYYHPM [DSN1] | 2.4 ± 0.058 | 2.87 ± 0.056 | 2.74 ± 0.049 | 2.84 ± 0.042
21 | KFPPPTPLLENISISTS [BRR2] | 1.83 ± 0.054 | 1.84 ± 0.056 | 1.63 ± 0.094 | 1.68 ± 0.045
22 | DEEELGQRTAYHSKRDA [RPB2] | 3.4 ± 0.1 | 2.9 ± 0.14 | 3.31 ± 0.09 | 3.04 ± 0.098
23 | ERLDKDKDRDTRRKRRQ [SNF5] | 2.82 ± 0.13 | 3.27 ± 0.21 | 2.9 ± 0.11 | 3.46 ± 0.13
24 | SSAAILGLGIAFAGSKN [RPN1] | 1.35 ± 0.081 | 1.94 ± 0.097 | 2.03 ± 0.29 | 1.34 ± 0.092
25 | AYVVNDTAPKPNIVEID [DLS1] | 3.26 ± 0.24 | 3.22 ± 0.19 | 2.97 ± 0.11 | 3.15 ± 0.19
26 | TFFPRCIIAVSCTLLER [POP1] | 1.31 ± 0.024 | 1.36 ± 0.032 | 1.5 ± 0.051 | 1.63 ± 0.03

Row | Sequence | protein stability index (doa10∆) | protein stability index (pdr5∆) | protein stability index (san1∆) | protein stability index (ubr1∆)
27 | LRLVDDDENNPSHYPHP [RRP6] | 3.11 ± 0.09 | 2.92 ± 0.093 | 2.77 ± 0.069 | 2.89 ± 0.038
28 | ISKQRTFAVILFLIIQC [YMR129W/POM152] | 1.38 ± 0.051 | 1.38 ± 0.067 | 1.32 ± 0.087 | 1.51 ± 0.058
29 | SIHAHGSTDVGYYLSLG [PUP1] | 2.62 ± 0.069 | 2.79 ± 0.069 | 2.91 ± 0.065 | 2.24 ± 0.053
30 | GQGAFGNMCRGGRMFAP [RPL4A] | 3.61 ± 0.2 | 3.06 ± 0.27 | 3.23 ± 0.067 | 3.4 ± 0.11
31 | QTKRWPTMYTRLCICSG [SIN4] | 1.4 ± 0.039 | 1.48 ± 0.038 | 1.51 ± 0.078 | 1.58 ± 0.03
32 | SEAFPSLQSCSVAVHFQ [SMC4] | 1.77 ± 0.1 | 2.09 ± 0.082 | 2.39 ± 0.095 | 1.79 ± 0.056
33 | KYRKRQLVTREAQIKDW [FAS2] | 2.81 ± 0.27 | 2.86 ± 0.15 | 2.93 ± 0.24 | 3.22 ± 0.11
34 | QNNNTLGGGGLFGQSQQ [YGR119C/NUP57] | 3.43 ± 0.13 | 3.27 ± 0.29 | 3.18 ± 0.12 | 3.07 ± 0.087
35 | FTIVSLVQLKKFSDLKF [YML103C/NUP188] | 2.37 ± 0.17 | 2.5 ± 0.097 | 2.7 ± 0.1 | 2.06 ± 0.073
36 | DRKIQGWLGALTMANLP [ARP7] | 2.8 ± 0.066 | 3 ± 0.063 | 2.65 ± 0.069 | 2.81 ± 0.045
37 | HIVQDCTLTADGAYALS [ASC1] | 2.37 ± 0.057 | 2.69 ± 0.062 | 2.52 ± 0.12 | 2.44 ± 0.064
38 | DENDSKKNNAASELANP [YAR002W/NUP60] | 2.97 ± 0.078 | 2.99 ± 0.052 | 3.05 ± 0.047 | 2.97 ± 0.047
39 | QQYVAAGDLRALDTVTN [FAS1] | 2.88 ± 0.087 | 2.87 ± 0.081 | 2.92 ± 0.085 | 2.79 ± 0.13
40 | KSGKRKPNIILDEDDTN [RPC31] | 3.29 ± 0.1 | 3.12 ± 0.092 | 3.35 ± 0.067 | 3.21 ± 0.046
41 | KFTTVLAKILARSIDVE [ECM29] | – | 1.53 ± 0.2 | 2.94 ± 0.14 | 3.01 ± 0.22
42 | RTLWPEFIPPDPTKVTE [SSN8] | 2.49 ± 0.042 | 2.73 ± 0.038 | 2.78 ± 0.04 | 2.671 ± 0.026
43 | NGDKMPLKFKLGPLSYQ [YJR042W/NUP85] | 2.94 ± 0.12 | 3.09 ± 0.096 | 3.02 ± 0.096 | 3.27 ± 0.12
44 | EPNLAAQQDSTNVRLYS [ECM29] | 2.88 ± 0.11 | 2.9 ± 0.063 | 2.81 ± 0.089 | 2.37 ± 0.074
45 | AKCNSLLQLKYFSNKTS [POP5] | 1.84 ± 0.076 | 2.09 ± 0.055 | 1.8 ± 0.1 | 2.2 ± 0.08
46 | SSNCHVRQKIKTLKRMI [POP1] | 1.41 ± 0.04 | 1.75 ± 0.053 | 1.42 ± 0.091 | 2.01 ± 0.045
47 | NEKKTETNAKPFSFSSA [YLR335W/NUP2] | 3.32 ± 0.11 | 3.28 ± 0.088 | 3.33 ± 0.041 | 3.36 ± 0.079
48 | DLETLTMHTKTYAAEIA [RPL32] | 2.99 ± 0.061 | 2.74 ± 0.054 | 2.42 ± 0.053 | 2.63 ± 0.059
49 | QMMSKGIGALFTQQELQ [RPC34] | 3.3 ± 0.11 | 3.26 ± 0.12 | 3.12 ± 0.07 | 3.34 ± 0.08
50 | LLDDKKLMDEDSVATVI [YJR042W/NUP85] | 3.06 ± 0.15 | 2.91 ± 0.21 | 2.87 ± 0.14 | –
51 | NSILSVRDPWSIDFRTY [SRB2] | 2.71 ± 0.1 | 2.68 ± 0.14 | 2.48 ± 0.22 | 2.98 ± 0.1
52 | QLVTREAQIKDWVENEL [FAS2] | 3.44 ± 0.1 | 3.19 ± 0.1 | 3.39 ± 0.065 | 3.11 ± 0.064
